# Results reported in the DeepSol protein solubility set.
# Assay: soluble on expression in E. coli; label from the status in PepcDB or PDB records
row,Sequence,soluble on expression in E. coli
1,SYSSAFAQAASSSLATSSAISRAFASVSSASAASSLAYNIGLSAARSLGIASDTALAGALAQAVGGVGAGASASAYANAIARAAGQFLATQGVLNAVNASSLGSALANALSDSAANSAVSGNYLGVSQN,soluble
2,TAKQRDDAIENAEAAKVESEQVAKKATEGELHLAEVLEQANLNSIELKSVSQALDEQSSQLDEQVNALNVNSESQASAAEQMSQQVHHMATGIEESSKFVEELREKSEDVHQQAEKSSELLEDSTQAIGQIITSHEEIMKVADLITSVAEANQLAGFKCGNRSGASRRSGQRFCCGCRASTRAICEE,not soluble
3,TETMTVTATGNARSSFEAPMMVSVIDTSAPENQTATSATDLLRHVPGITLDGTGRTNGQDINMRGYDHRGVLVLVDGIRQGTDTGHLNGTFLDPALIKRVEIVRGPSALLYGSGALGGVISYDTVDAKDLLQEGQSSGFRVFGTGGTGDHSLGLGASAFGRTENLDGIVAWSSRDRGDLRQSNGETAPNDESINNMLAKGTWQIDSAQSLSGLVRYYNNDAREPKNPQTVEASESSNPMVDRSTIQRDAQLSYKLAPQGNDWLNADAKIYWSEVRINAQNTGSSGEYREQITKGARLENRSTLFADSFASHLLTYGGEYYRQEQGSHHHHHHHPGGATTGFPQAKIDFSSGWLQDEITLRDLPITLLGGTRYDSYRGSSDGYKDVDADKWSSRAGMTINPTNWLMLFGSYAQAFRAPTMGEMYNDSKHFSIGRFYTNYWVPNPNLRPETNETQEYGFGLRFDDLMLSNDALEFKASYFDTKAKDYISTTVDFAAATTMSYNVPNAKIWGWDVMTKYTTDLFSLDVAYNRTRGKDTDTGEYISSINPDTVTSTLNIPIAHSGFSVGWVGTFADRSTHISSSYSKQPGYGVNDFYVSYQGQQALKGMTTTLVLGNAFDKEYWSPQGIPQDGRNGKIFVSYQW,soluble
4,TGAGTPSQGKKNTTTHTKCRRCGEKSYHTKKKVCSSCGFGKSAKRRDYEWQSKAGE,soluble
5,TGEESLQQVAMRASRLGLPKEHLKMLSETNVDKICQIAEKEQPRIMVIDSIQVMHVSDVQSSPGSVAQVRESATALTRYAKQNNVAVFIVGHVTKDGTLAGPKVLEHIIDCSVLLDGGTDSRFRTLRSHKNRFGAVNELGVFAMTGQGLKEVSNPSAIFLSRGEEETSGSSVMVVWEGTRPLLVEIQALVDYSQLANPRRVAVGLEQNRLSLLLAVLHKHGGLQMADQDVFVNVVGGV,not soluble
6,THQMNQFYTTGAGRDIFATDEAKQVSAHLANEVDQLAQSLLKKEVYDKTKLFVADFVRQYPFADLSMIRTPAYRAWLEANQISEEDAVTTLGTMPEALGDVSDRLSLVSEQTPKIMTWKAQLLALNSSASIEKVNAALNSLQVTADSMRDFIDNNPEYMRYLAEQMAVELQPLVDDIDQKTEARLSQLGEERQALEEMVARERQEIALIITHEREKFAQDMDRVSQEVVNLAMTKLIELVKST,not soluble
7,TKLTEQQTMNGLLRFGEYQRIIERRSFSLLDMKRFVTALGLESGGYRGEFSDLVNQGQPAIVPISYAGFKHFVVYKGYKDGRVYVADPALGNISFDEVRFKEIWENNTLFLIQVPE,not soluble
8,TLLPQVQEVAYNQMANAGYEGAVVAIKPSTGEILAMASTPSYDPSAIVNPDTAEQTWAALNADPGNPLLNHATQETLPPGSTFKVITTAAGLNAGYGPGSMLTGQDRITLPDGITTLENYAGQTCAGSQNVTLATAFQYSCNTAFVQMGIDVGKEKFDEAAHAFGVNDRYDLGVDMAPGTIGDVSDPSARGQSSIGQRDVAMSVLHNAVVAATVANGGKRMEPHLVNRIVGQDLKVIKETKPHQINEAVTPEVAATLTDLMRLSERHTAGYTGADIASKTGTAEHGEDSRNSNPHAWYIAFGPSANADVAVAVVVKNGGDAGQAATGGSVAAPIGRAVIAAAQAALAARG,not soluble
9,TNTEAFCTSCHEMQSNVFEELTRTVHYTNRSGVRAGCPDCHVPHEWTDKIARKMQASKEVWGHLFGTIDTRRKFLDNRLRLAEHEWARLKANDSLECRNCHSEVAMDFTRQTDRAAQIHTQYLIQTEGYTCIDCHKGIAHEL,not soluble
10,TPIPHKITSFAEQMRGLRSESKVLELVVIPADHSIAELLKMKENEPVNKLVRVRYAEGEPLQYHTSYIPWKAAPGLAQEECTGSLFELLRTKYNIEISRGTESIEPILTDETISGHLLTNVGAPAFLSESLTYDKNEEVVEYAQIITRGDRTKFTVEQSYHS,not soluble
11,TRDFMWRLGLNLTHYKNVVTDLPLKDMPVSGVHKLAVGRSVYDFYMKKWAGVDPENGDPLWYKNVKDANNKITGRTTTNDYAQADYYYTGKSSLPKVYGGFNTAFSYKGFELSTIFAYSIGNYIVDRDVTMLWHNGSSTGRAWSTEILNRWTPENRYTDVPALKTVSNSWNANSTRNLFNNSFLRMKNITLSYNFPQPMIKKISLNSLQLFVQADNLLTVSKNQGLDPEQDISGLTYYRYPAMRSISGGINVSF,not soluble
12,TRPIFAIEQLSPYQNVWTIKARVSYKGEIKTWHNQRGDGKLFNVNFLDTSGEIRATAFNDFATKFNEILQEGKVYYVSKAKLQPAKPQFTNLTHPYELNLDRDTVIEECFDESN,soluble
13,TRTLRGVMRVGLVAKCLLLKGDLDLELVLLCKEKPTTALLDKVADNLAIQLAAVTEDKYEILQSVDDAAIVIKNTKEPPLSLTIHLTSPVVREEMEKVLAGETLSVNDPPDVLDRQKCLAALASLRHAKWFQARANGLKSCVIVIRVLRDLCTRVPTWGPLRGWPLELLCEKSIGTANRPMGAGEALRRVLECLASGIVMPDGSGIYDPCEKEATDAIGHLDRQQREDITQSAQHALRLAAFGQLHKVLGMD,not soluble
14,TSEEYYKRKKQIKKLMSDQYAFLDLHGFTLHEDLYFEGIYEGFFFRVCPATEYIKKGYAGKKAIEYVIIESFYRFASEATDMDREVKMSGEYNFGDVHFENHCAGFVPKDWKNPDFKANFDALITIFEREGLLPITKNDWESTFGQHSKKAKDASRKNPQR,not soluble
15,TSKETFTHYQPQGNSDPAHTATAPGGLSAKAPAMTPLMLDTSSRKLVAWDGTTDGAAVGILAVAADQTSTTLTFYKSGTFRYEDVLWPEAASDETKKRTAFAGTAISIV,soluble
16,TSKINWNISVNATTYKNKILTLPEEKRESGIWNGIFKMVEGGSYYDYYIKEWAGVDPEDGKAMWYKDVTDKNGNTTKETTKTYSEATDYKAGCALPDLYGGISTSLNAYGFDFSIALTYQLGGQGYDYTYATLMNSAQGAGTNYHNDILNAWTPENKYTDVPKLNAKESNNNSTSTRFLTSTSYLSLQNISVGYTLPKNWIAKLGCESLRVYFVADNVALLSARKGYDPRTNWNGESNYNYSALRSISGGITMKF,not soluble
17,TSKKKRQRGSRTHGGGSHKNRRGAGHRGGRGDAGRDKHEFHNHEPLGKSGFKRPQKVQEEAATIDVREIDENVTLLAADDVAEVEDGGFRVDVRDVVEEADDADYVKVLGAGQVRHELTLIADDFSEGAREKVEGAGGSVELTDLGEERQAEAEETEDADADEE,soluble
18,TTPMNLTDAIAYILRPFAVLKVPVNDIALMISVALRFIPTLMGETDKIMKAQRARGVDFGEGNLFEQMKVVVPIFIPLFVSSFNRAEELADAMEARGYQGGEGRTRFRILH,not soluble
19,TTPTVNATPKIHKRDYQKDVVYLYQFPRIDTVPNLSSFCLKTETFLRAFKIPHEVIETGSLRSRNGTLPFVELNGEHIPDSDLIEVRLRKHFQIPNLSAEDESHATALCRLADNHLLSIIIKYKAAEDAWYSALLRGVPGPNCLKTILKPIVRKLFMKKVHERTGGAIGNFTEDEAEMLCHKDLQAIQDSIKGKYLFGDKITSADCTVFGEVASAYYPFPNKFSRIIDSHYPKLHEYCDRIIEELY,not soluble
